Test results as given in the nanobody polyreactivity screen of Harvey et al. (2022).

Test: yeast display, Sf9 membrane polyspecificity reagent, FACS + sequencing; frameworks hold sequencing errors
Outline: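 Synthetic nanobody libraries on Saccharomyces cerevisiae BJ5465 were galactose-induced for 36–48 hours, stained 1 hour at 4 °C with 10% biotinylated, detergent-solubilized Sf9 membrane reagent and enriched on streptavidin microbeads. FACS then separated cells into low and high (top ~1%) gates by anti-HA (expression) and streptavidin (reagent binding) fluorescence. Genes were colony-PCR amplified, MiSeq 2 × 250 sequenced and CDR-length filtered. A clone's polyreactivity label is that of its gate of origin.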

Sequence	polyreactivity (PSR sort gate)
QVQLVESGGVLVQAGGSLRLSCAASGLIFATYAMGWSRQAPGKERELVAAISSNGDRTYYADSVKGGFTISRDNAKNTVYLQMNCLKPEDTAVYYCARLYLVQSRYPEMDFWGQGTQVTVSS	high polyreactivity
QVQLVESGGVLVQAGGSLRLSCAASGLIFSRYVMGWYRQAPGKERELVAAISRSGGSTYYADSVKGRFTISRDNAKNTVYLQMNSLKPEDTAVYYCNKLAPAPEADDYWGQGTQLTVSS	high polyreactivity
QVQLVESGGVLVQAGGSLRLSCAASGLTFGGNAKGWYRPAPGKERELVAAISWSDDTTDYADSVKGRFTISRDNAKNTVYLQMNSLKPEDTAVYYCAARLPFEYVDYWGQGTQVTVSS	low polyreactivity
QVQLVESGGVLVQAGGSLRLSCAASGLTFKWYAMGWYRQAPGKERELVAAITKSGGTTYADSVKGRFTISRDNAKNTVYLQMNSLKPEDTAVYYCAARYWRLWNTVRYEGDFSDGYWGQGTQVTVSS	high polyreactivity
QVQLVESGGVLVQAGGSLRLSCAASGNIFYAYAMGWYRQAPGKERELVAAISWSGDSTYYADSVKGRFTISRDNAKNTVNLQMNSLKPEETAVEYCAADSYRFYSGYYYWGQGTQVTVSS	low polyreactivity
QVQLVESGGVLVQAGGSLRLSCAASGRIFRYYAMGWYRQAPGKERELVAAISSDGSTDYADSVKGRFTISRDNAKNTVYLLMNSLKPEDTAVYYCAASVVSYGHDYWGQGTQVTVSS	low polyreactivity
QVQLVESGGVLVQAGGSLRLSCAASGRIFSSYAMGWNRHAPGKERELVATSRRADSTYYADSVKGRFTISRDNAKNTVYLQMNSLKPEDTAVYYCAADTRLSRLIHRYDYWGQGTQVTVSS	low polyreactivity
QVQLVESGGVLVQAGGSLRLSCAASGRTFFNYAMGWYRQAPGKESEFVASISWSDVITYYADSVKGRFTISRDNAKNTVYLQMNSLKQEDTAVYYCAASKVGGGEEYWGQGTQVTVSS	low polyreactivity
QVQLVESGGVLVQAGGSLRLSCAASGRTFFRYTMGWYRPAPGKERELVAAISRSDGSTYYADSVKGRFTISRDNAKNTVYLQMNSLKPEDTAVYYCAKSLPSGYYYWGQGTQVTVSS	low polyreactivity
QVQLVESGGVLVQAGGSLRLSCAASGRTFLYNAMGWYRQAPGKERELVAAISSRGARTYYADSVKGRFTISRDNAKKTVYLQMNSLKPEDTAVYYCAASYTTAYYRYDYWGQGTQVTVSS	high polyreactivity
QVQLVESGGVLVQAGGSLRLSCAASGRTFTPYTMGCDRPAPGKERELVAAISWSGGTTYYADSVMGRFTISRDNSKITVYLQMNSLKRVDTAVYYCAARVSRTCHGYYYFWGQGTQVTVSS	high polyreactivity
QVQLVESGGVLVQAGGSLRLSCAASGSIFGLYAMGWYRQAPGKERELVAAISRRSVSTYYADSVKGRFTISRDNAKNTVYLQMNSLKPEDTAVYYCAAVTYPYLRSQKGYDGYGYWGHGTQVTVSS	high polyreactivity
QVQLVESGGVLVQAGGSLRLSCAASGSIFGVYTMGWYRQAPGKERELVAAISGSGGSTYYADSVKGRFTISRDNAMNTVYLQMNSLKPEDTAVYYCATRFPKIPPYDSWGQGTQVTVSS	low polyreactivity
QVQLVESGGVLVQAGGSLRLSCAASGSIFTYYAMGWYRQAPGKEREFVAAISRSGGSTYYADSVKGRFTISRDNANNTVYLQMNSLKPEDTAVYYCNAYSYSDAGDDGDYWGQGTQVTVSS	low polyreactivity
QVQLVESGGVLVQAGGSLRLSCAASGSIFVPYAMGWYRQAPGKERELVAAISSGGSTNYADSVKGRFTISRDNAKNTVYLLMNSLKPEDTAVYYCAADRKYFYLWLDQEHRYYWGQGYQVTVSS	low polyreactivity
QVQLVESGGVLVQAGGSLRLSCAASGSISFNAMGWYRQAPGKERELVAAITTSGGRTYYADSVKGRLTISRDNAKNTVSLQMNSLKPEDTAVYYCNVASKGRFARYAAEYVSWRQGTQVTVSS	high polyreactivity

Sequence	polyreactivity (PSR sort gate)
QVQLVESGGVLVQAGGSLRLSCAASGSTFDSYAMGWYRQAPGKERELVAAISYGGGSTYYADSVKGRFTISRDNAKNTVYLQMNSLKPEDTAVYYCAARNARGVVGRTESKVTYDYWGQGTQVTVSS	high polyreactivity
QVQLVESGGVLVQAGGSLRLSCAASGSTFGANAMGWNREAPGKEREFVAAISGSGTTTYYADSVKGRFTISRDNAKNSVYLHLNSLKQEDTAVYYCAKTRKAHWLEYWGQGTKVTVSS	low polyreactivity
QVQLVESGGVLVQAGGSLRLSCAASGSTFGWYAMGWYRQAPGKERELVAAITSVGSTYYADYVKGRFTISRDNAKNTVYLQMNSLKPEDTAVYYCAAGWTYAYTLSLYEYWGQGTQVTVSS	low polyreactivity
QVQLVESGGVLVQAGGSLRLSCAASGSTFSTNAMGWYRQAPGKEREFVAAITWSGDSTDYADSVKGRFTISRDNAKNTVYLQMNSLKPEDTAVYYCAADFPGFYYVYPGDYWGQGTQVTVSS	low polyreactivity
QVQLVESGGVLVQAGGSLRLSCAASGSTFYGYAMGWYRQAPGKERELVAAITRSGGSTYYADSVKGRFTISRDNAKNTVYLQMNSLKPEDTAVYYCARQDRDTYYHRYYYWGQGTQVTVSS	high polyreactivity
QVQLVESGGVLVQAGGSLRLSCAASGSTSYNNAMGWYREAPGKEREFVAAISSNGDRTYYADSVKGRFTISRDNPKNTVYLLMNSLKPEDTAVFYCAVRSWYNYEWGQGTQVTVSS	high polyreactivity
QVQLVESGGVLVQAGGSLRLSCAASGYIFSLNGMGWYRQAPGKERELVAAITVSGGRTYYADSVKGRFTISRDNAKNTVYLQMNSLKPEDTAVYYCAKRGKYSYWPYYKYDYWGQGTQVTVSS	high polyreactivity
QVQLVESGGVLVQAGGSLRLSCAASVFIFPYYAMGRYRQEPGKEMELVAAISSGGITNYADSVKGRFTISRDNSKNTVYLQMNSLKPEDTAVYYCAAKRRVGNFRYGYWGQGTQVTVSS	high polyreactivity
QVQLVESGGVLVQAGGSLRLSCAAYGSNFVRNGMGWYRQAPGKEREFVASITSGTITYYADSVKGRFTISRDNAKNTVYLQMNSLKPEDTAVYYCNAGCRSSRFKRPYFRERNYWGQGTQLTVSS	high polyreactivity
QVQLVESGGVLVQAGGSLRLSSAASGGTFWYYAMGMYRQEPGKERELVASISRGGSTNYADSVKGRFTISRDKAKHTVDLQMNRLKPEDTAVYYCIAGLRVGPRRYVDYEYDYWGQGSQVTVSS	low polyreactivity
QVQLVESGGVLVQAGGSLRLTCAASGRIFQNYAMGWYRQAPAKERELDATISSGVSTYYADSVKGRFTISRDNAKNTVYLQMNSLKPEDTAVYYCAAYVPWFEMDYWGQGTQVTVSS	low polyreactivity
QVQLVESGGVLVQAGGSLRLTCAASGSTFLYNAMGWYRQAPGKEREFVAAISGSGGTTYYADSVKGRFTISRDNAKNTVYLQMNSLKPEDTAVYYCAVSQSWYWYYASDYWGQGTQVTVSS	low polyreactivity
QVQLVESGGVLVQARVSLRLSCAASGLTIYYYAMGWYRQAPGQERELVAAITWRGGSTYYADSVKGRFTISRDNEKNTVYLQMISLKPEVTAVYYCAADPGPYGYYYWGLGTQVTVSS	low polyreactivity
QVQLVESGGVLVQSGGSLRLSCAASGFIFYDYAMGWYRQAPGKEREMVAAITSGGSTYYADSVKGRFTISRDNAKNTVYLQMKSLKPEDTAVYYCAADAYNLDDDTYDYWGQGTIVTVSS	low polyreactivity
QVQLVESGGWLVQAGGSLRLRCAASGRIFSRYAMGWYRQAPGKEWELVAAISWSGGSTYYADSVKGRFTISRDNAKNTVYLQMNSLKPEDTAVYYCAAKRQYTEYNYWGQGSQVTVSS	high polyreactivity
QVQLVESGGWLVQAGGSLRLSCAASGSTFEDYVMGWYRQAPGTEREFVAAISRGSGSTYYADSVKGRFTISRDNAKNTVFLQMNSLKPEDTAVYYCAARSQLGYRTRYPTYYWGQGTQVTVSS	high polyreactivity
